Test results taken from patent US7514233.

Molecular target: Recombinant HIV-1 integrase from pRP1012 with the His6 tag removed by thrombin (HIV-1) (UniProt P04585)
Assay: cell-based or functional assay

His6-tagged Inip76/LEDGF expressed in E. coli from pCP6H75 (pRSETB) (from UniProt O75475 2-530)
IN protein remaining soluble after 45 minutes incubation at 4° C. and centrifugation at 20000 g: 50%
